Source: patent publication US7829109B2, “Catheter injectable depot compositions and uses thereof” (Durect Corporation, priority 2001, dated 2010)

Columns and labels:
[1] = Preliminary stability of PDGF preformulations in the gel vehicle (SEC, rpHPLC); type: physicochemical; details: mixed into gel vehicle PLGA RG502/BB/BA 40/45/15, stored at 5° C. for 1 day
Experimental: All lyophilized protein formulations as listed in Tables 8 and 9, were mixed into a gel vehicle with the composition of PLGA RG502/Benzyl Benzoate (BB)/benzyl alcohol (BA) of 40/45/15 with the loading of the protein formulation about 10 wt %. After being stored at 5° C. for 1 day, the mixtures were extracted with an organic solvent mixture of methylene chloride and acetone (ratio of 50/50) as described in the example 15 above. The purity of the PDGF-BB was analyzed by both reverse phase HPLC (rpHPLC) and size exclusion chromatography (SEC). In general, no distinguishable degradation of the PDGF-BB was found in the PDGF-BB formulation incorporated with the excipients as described in the example 18 and mixed with the gel vehicle of the present invention.

[2] = Stability of PDGF in the depot formulations (rpHPLC, SEC); type: physicochemical; details: day 0
Experimental: Depot gel PDGF formulations were stored for different periods of time at 5, 25 and 40° C., respectively. At predetermined time points, the depot gel PDGF-BB formulation (0.3 ml) was treated with a cooled organic solvent (a 50/50 mixture of methylene chloride/acetone, at 5° C., 3×3.0 ml). The resulting residual PDGF-BB was dissolved in a PBS buffer (2 ml, pH 7.4) and the purity of the PDGF was analyzed by both reverse phase HPLC (rpHPLC) and size exclusion chromatography (SEC) HPLC. FIGS. 18-20 illustrate the stability of PDGF (% monomer by SEC) in the various depot formulations, including those of the present invention, as a function of time at 5° C. (FIG. 18), 25° C. (FIG. 19) and 40° C. (FIG. 20), respectively. Table 12 summarizes the chemical stability of PDGF tested by rpHPLC in the various depot formulations, including those of the present invention, as a function of time at 5° C., 25° C. and 40° C., respectively. […] Sucrose has a significant stabilizing effect on the various depot formulations of the present invention.

Substance: Bulk PDGF: PDGF-BB bulk solution, i.e., aqueous solution of PDGF in acetate buffer
- % PDGF dimer by SEC [1]: 0.73%
- % PDGF monomer by SEC [1]: 99.27%
- % other peaks by rp-HPLC [1]: 0.0%
- % peak at RRT = 0.93 by rp-HPLC [1]: 11.1%
- % peak at RRT = 1.00 by rp-HPLC [1]: 87.7%
- % peak at RRT = 1.10 by rp-HPLC [1]: 1.2%
- RP-HPLC Other Peak(s) [2]: 0 % Peak Area
- RP-HPLC Peak at (RRT = 0.93) [2]: 11.1 % Peak Area
- RP-HPLC Peak at (RRT = 1.00) [2]: 87.7 % Peak Area
- RP-HPLC Peak at (RRT = 1.09) [2]: 1.2 % Peak Area
